Experimental data reported in PMC9482650, “Quantitative fragmentomics allow affinity mapping of interactomes” (Nature Communications, 2022).

T1: GRIP1_5, Q9Y3R0
T1 sequence (Q9Y3R0 568-668, limits assumed, looked up): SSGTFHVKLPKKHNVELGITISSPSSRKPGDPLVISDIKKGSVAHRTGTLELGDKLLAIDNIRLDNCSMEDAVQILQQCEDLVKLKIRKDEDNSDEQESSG

T2: PDZD7_3, Q9H5P4
T2 sequence (Q9H5P4 857-944, limits assumed, looked up): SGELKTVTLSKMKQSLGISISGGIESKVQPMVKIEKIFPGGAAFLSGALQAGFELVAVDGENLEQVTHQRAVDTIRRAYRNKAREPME

T3: NHERF3_1, Q5T2W1
T3 sequence (Q5T2W1 4-100, limits assumed, looked up): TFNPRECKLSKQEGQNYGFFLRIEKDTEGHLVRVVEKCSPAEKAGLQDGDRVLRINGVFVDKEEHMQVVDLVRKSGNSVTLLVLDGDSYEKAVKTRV

T4: HTRA4, P83105
T4 sequence (P83105 378-476, limits assumed, looked up): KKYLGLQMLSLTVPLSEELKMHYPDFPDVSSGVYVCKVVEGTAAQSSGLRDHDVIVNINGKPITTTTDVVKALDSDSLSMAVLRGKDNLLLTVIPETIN

T5: SIPA1L2, Q9P2F8
T5 sequence (Q9P2F8 945-1036, limits assumed, looked up): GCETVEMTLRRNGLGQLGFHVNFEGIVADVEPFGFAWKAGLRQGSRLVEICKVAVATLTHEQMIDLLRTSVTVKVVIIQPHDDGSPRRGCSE

T6: TIAM2, Q8IVF5
T6 sequence (Q8IVF5 885-986, limits assumed, looked up): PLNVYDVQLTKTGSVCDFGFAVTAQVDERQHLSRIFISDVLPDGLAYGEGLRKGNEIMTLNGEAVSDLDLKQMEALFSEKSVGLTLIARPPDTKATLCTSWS

T7: DFNB31_1, Q9P202
T7 sequence (Q9P202 135-233, limits assumed, looked up): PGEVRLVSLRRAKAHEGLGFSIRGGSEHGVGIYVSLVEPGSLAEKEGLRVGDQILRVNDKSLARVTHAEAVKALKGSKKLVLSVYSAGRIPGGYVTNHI

T8: LRRC7, Q96NW7
T8 sequence (Q96NW7 1440-1537, limits assumed, looked up): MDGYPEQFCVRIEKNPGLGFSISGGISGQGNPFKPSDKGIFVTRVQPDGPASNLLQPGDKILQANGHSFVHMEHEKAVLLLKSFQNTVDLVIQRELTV

T9: APBA2_1, Q99767
T9 sequence (Q99767 563-664, limits assumed, looked up): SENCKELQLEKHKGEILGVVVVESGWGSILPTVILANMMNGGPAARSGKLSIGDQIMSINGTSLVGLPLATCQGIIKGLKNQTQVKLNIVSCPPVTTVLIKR

T10: LNX2_3, Q8N448
T10 sequence (Q8N448 463-564, limits assumed, looked up): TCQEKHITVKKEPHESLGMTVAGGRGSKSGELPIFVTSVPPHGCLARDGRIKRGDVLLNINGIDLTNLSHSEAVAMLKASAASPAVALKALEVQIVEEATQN

T11: DFNB31_2, Q9P202
T11 sequence (Q9P202 274-371, limits assumed, looked up): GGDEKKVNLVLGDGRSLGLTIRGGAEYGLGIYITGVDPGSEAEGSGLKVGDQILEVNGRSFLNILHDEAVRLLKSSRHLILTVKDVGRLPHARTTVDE

T12: TJP3_3, O95049
T12 sequence (O95049 375-456, limits assumed, looked up): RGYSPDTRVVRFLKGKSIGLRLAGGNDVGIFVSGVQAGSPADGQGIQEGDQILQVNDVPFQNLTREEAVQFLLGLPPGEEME

T13: APBA1_2, Q02410
T13 sequence (Q02410 742-832, limits assumed, looked up): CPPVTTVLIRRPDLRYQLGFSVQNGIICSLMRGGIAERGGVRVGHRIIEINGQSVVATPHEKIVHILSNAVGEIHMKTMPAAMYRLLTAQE

B1: GOLT1A, Q6ZVE7 (peptide)
chain: RRLQGTSSMV
B2: ADGRA1, Q86SQ6 (peptide)
chain: TGPWKNETTV
B3: SCN4A, P35499 (peptide)
chain: VRPGVKESLV
B4: PKN2, Q16513 (peptide)
chain: RDFDYIADWC

What follows are binders tested against T1, GRIP1_5, Q9Y3R0 (assay: holdup assay). Conditions: plain residues with an end cap or a label only (N-terminal biotin on a linker: ado-ado).
Set-up: key: below the threshold = too weak to quantify, mostly under pKd 3.1 to 4

Row | Binder | pKd
1 | B1 | below the threshold
2 | B2 | below the threshold
3 | B3 | below the threshold
4 | B4 | below the threshold

These binders were tested against MAGI2_6, Q86UL8 (assay: holdup assay). Conditions: plain residues with an end cap or a label only (N-terminal biotin on a linker: ado-ado).
Set-up: key: below the threshold = too weak to quantify, mostly under pKd 3.1 to 4

Sequence of MAGI2_6, Q86UL8 (Q86UL8 1141-1229): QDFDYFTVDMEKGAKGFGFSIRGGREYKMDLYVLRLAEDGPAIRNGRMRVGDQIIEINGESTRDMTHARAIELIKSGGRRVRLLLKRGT

Row | Binder | pKd
5 | B1 | 3.68
6 | B2 | 3.71
7 | B3 | 3.93
8 | B4 | 3.77

Each binder was assayed against GIPC2, Q8TF65 (assay: holdup assay). Conditions: plain residues with an end cap or a label only (N-terminal biotin on a linker: ado-ado).
Set-up: key: below the threshold = too weak to quantify, mostly under pKd 3.1 to 4

Sequence of GIPC2, Q8TF65 (Q8TF65 112-203): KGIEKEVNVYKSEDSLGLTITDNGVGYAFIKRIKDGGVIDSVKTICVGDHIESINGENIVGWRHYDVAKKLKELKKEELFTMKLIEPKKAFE

Row | Binder | pKd
9 | B1 | below the threshold
10 | B2 | 4.24
11 | B3 | below the threshold
12 | B4 | below the threshold

Each binder was assayed against T2, PDZD7_3, Q9H5P4 (assay: holdup assay). Conditions: plain residues with an end cap or a label only (N-terminal biotin on a linker: ado-ado).
Set-up: key: below the threshold = too weak to quantify, mostly under pKd 3.1 to 4

Row | Binder | pKd
13 | B1 | below the threshold
14 | B2 | 4.9
15 | B3 | 5.05
16 | B4 | below the threshold

What follows are binders tested against T3, NHERF3_1, Q5T2W1 (assay: holdup assay). Conditions: plain residues with an end cap or a label only (N-terminal biotin on a linker: ado-ado).
Set-up: key: below the threshold = too weak to quantify, mostly under pKd 3.1 to 4

Row | Binder | pKd
17 | B1 | 4.09
18 | B2 | below the threshold
19 | B3 | 4.6
20 | B4 | 4.27

These binders were tested against T4, HTRA4, P83105 (assay: holdup assay). Conditions: plain residues with an end cap or a label only (N-terminal biotin on a linker: ado-ado).
Set-up: key: below the threshold = too weak to quantify, mostly under pKd 3.1 to 4

Row | Binder | pKd
21 | B1 | below the threshold
22 | B2 | 3.92
23 | B3 | below the threshold
24 | B4 | 4.9

What follows are binders tested against NHERF4_2, Q86UT5 (assay: holdup assay). Conditions: plain residues with an end cap or a label only (N-terminal biotin on a linker: ado-ado).
Set-up: key: below the threshold = too weak to quantify, mostly under pKd 3.1 to 4

Sequence of NHERF4_2, Q86UT5 (Q86UT5 220-308): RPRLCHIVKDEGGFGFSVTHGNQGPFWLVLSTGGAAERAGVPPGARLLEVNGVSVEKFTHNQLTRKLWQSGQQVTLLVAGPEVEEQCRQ

Row | Binder | pKd
25 | B1 | below the threshold
26 | B2 | below the threshold
27 | B3 | below the threshold
28 | B4 | below the threshold

These binders were tested against DLG1_3, Q12959 (assay: holdup assay). Conditions: plain residues with an end cap or a label only (N-terminal biotin on a linker: ado-ado).
Set-up: key: below the threshold = too weak to quantify, mostly under pKd 3.1 to 4

Row | Binder | pKd
29 | B1 | 3.58
30 | B2 | 4.47
31 | B3 | 3.97
32 | B4 | below the threshold

Each binder was assayed against T5, SIPA1L2, Q9P2F8 (assay: holdup assay). Conditions: plain residues with an end cap or a label only (N-terminal biotin on a linker: ado-ado).
Set-up: key: below the threshold = too weak to quantify, mostly under pKd 3.1 to 4

Row | Binder | pKd
33 | B1 | below the threshold
34 | B2 | below the threshold
35 | B3 | below the threshold
36 | B4 | below the threshold

What follows are binders tested against T6, TIAM2, Q8IVF5 (assay: holdup assay). Conditions: plain residues with an end cap or a label only (N-terminal biotin on a linker: ado-ado).
Set-up: key: below the threshold = too weak to quantify, mostly under pKd 3.1 to 4

Row | Binder | pKd
37 | B1 | 4.03
38 | B2 | below the threshold
39 | B3 | below the threshold
40 | B4 | 4.19

What follows are binders tested against T7, DFNB31_1, Q9P202 (assay: holdup assay). Conditions: plain residues with an end cap or a label only (N-terminal biotin on a linker: ado-ado).
Set-up: key: below the threshold = too weak to quantify, mostly under pKd 3.1 to 4

Row | Binder | pKd
41 | B1 | below the threshold
42 | B2 | 3.73
43 | B3 | 3.73
44 | B4 | 3.69

The binders below were run against T8, LRRC7, Q96NW7 (assay: holdup assay). Conditions: plain residues with an end cap or a label only (N-terminal biotin on a linker: ado-ado).
Set-up: key: below the threshold = too weak to quantify, mostly under pKd 3.1 to 4

Row | Binder | pKd
45 | B1 | below the threshold
46 | B2 | below the threshold
47 | B3 | 4.02
48 | B4 | below the threshold

The binders below were run against T9, APBA2_1, Q99767 (assay: holdup assay). Conditions: plain residues with an end cap or a label only (N-terminal biotin on a linker: ado-ado).
Set-up: key: below the threshold = too weak to quantify, mostly under pKd 3.1 to 4

Row | Binder | pKd
49 | B1 | below the threshold
50 | B2 | below the threshold
51 | B3 | below the threshold
52 | B4 | below the threshold

Each binder was assayed against SCRIB_1, Q14160 (assay: holdup assay). Conditions: plain residues with an end cap or a label only (N-terminal biotin on a linker: ado-ado).
Set-up: key: below the threshold = too weak to quantify, mostly under pKd 3.1 to 4

Sequence of SCRIB_1, Q14160 (Q14160 718-814): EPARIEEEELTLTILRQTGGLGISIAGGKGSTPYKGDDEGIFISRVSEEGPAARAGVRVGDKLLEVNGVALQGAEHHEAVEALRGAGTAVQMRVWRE

Row | Binder | pKd
53 | B1 | below the threshold
54 | B2 | 4.34
55 | B3 | 4.48
56 | B4 | below the threshold

Each binder was assayed against T10, LNX2_3, Q8N448 (assay: holdup assay). Conditions: plain residues with an end cap or a label only (N-terminal biotin on a linker: ado-ado).
Set-up: key: below the threshold = too weak to quantify, mostly under pKd 3.1 to 4

Row | Binder | pKd
57 | B1 | below the threshold
58 | B2 | below the threshold
59 | B3 | below the threshold
60 | B4 | below the threshold

What follows are binders tested against T11, DFNB31_2, Q9P202 (assay: holdup assay). Conditions: plain residues with an end cap or a label only (N-terminal biotin on a linker: ado-ado).
Set-up: key: below the threshold = too weak to quantify, mostly under pKd 3.1 to 4

Row | Binder | pKd
61 | B1 | below the threshold
62 | B2 | below the threshold
63 | B3 | 3.95
64 | B4 | below the threshold

These binders were tested against NHERF2_2, Q15599 (assay: holdup assay). Conditions: plain residues with an end cap or a label only (N-terminal biotin on a linker: ado-ado).
Set-up: key: below the threshold = too weak to quantify, mostly under pKd 3.1 to 4

Sequence of NHERF2_2, Q15599 (Q15599 142-238): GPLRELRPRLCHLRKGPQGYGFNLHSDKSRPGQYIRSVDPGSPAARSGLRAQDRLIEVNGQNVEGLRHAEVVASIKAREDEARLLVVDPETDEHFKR

Row | Binder | pKd
65 | B1 | below the threshold
66 | B2 | below the threshold
67 | B3 | below the threshold
68 | B4 | below the threshold

These binders were tested against DLG1_1, Q12959 (assay: holdup assay). Conditions: plain residues with an end cap or a label only (N-terminal biotin on a linker: ado-ado).
Set-up: key: below the threshold = too weak to quantify, mostly under pKd 3.1 to 4

Row | Binder | pKd
69 | B1 | 4.08
70 | B2 | 4.82
71 | B3 | 4.71
72 | B4 | below the threshold

What follows are binders tested against GRIP2_6, Q9C0E4 (assay: holdup assay). Conditions: plain residues with an end cap or a label only (N-terminal biotin on a linker: ado-ado).
Set-up: key: below the threshold = too weak to quantify, mostly under pKd 3.1 to 4

Sequence of GRIP2_6, Q9C0E4 (Q9C0E4 648-740): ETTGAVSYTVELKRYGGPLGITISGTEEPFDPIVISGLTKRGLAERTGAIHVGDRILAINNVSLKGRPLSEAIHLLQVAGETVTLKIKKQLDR

Row | Binder | pKd
73 | B1 | below the threshold
74 | B2 | below the threshold
75 | B3 | below the threshold
76 | B4 | below the threshold

These binders were tested against CASK, O14936 (assay: holdup assay). Conditions: plain residues with an end cap or a label only (N-terminal biotin on a linker: ado-ado).
Set-up: key: below the threshold = too weak to quantify, mostly under pKd 3.1 to 4

Sequence of CASK, O14936 (O14936 487-570): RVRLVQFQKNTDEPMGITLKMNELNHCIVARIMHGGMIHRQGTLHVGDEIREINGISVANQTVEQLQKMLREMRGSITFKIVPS

Row | Binder | pKd
77 | B1 | below the threshold
78 | B2 | below the threshold
79 | B3 | below the threshold
80 | B4 | 3.54

The binders below were run against T12, TJP3_3, O95049 (assay: holdup assay). Conditions: plain residues with an end cap or a label only (N-terminal biotin on a linker: ado-ado).
Set-up: key: below the threshold = too weak to quantify, mostly under pKd 3.1 to 4

Row | Binder | pKd
81 | B1 | below the threshold
82 | B2 | below the threshold
83 | B3 | below the threshold
84 | B4 | 4.57

These binders were tested against T13, APBA1_2, Q02410 (assay: holdup assay). Conditions: plain residues with an end cap or a label only (N-terminal biotin on a linker: ado-ado).
Set-up: key: below the threshold = too weak to quantify, mostly under pKd 3.1 to 4

Row | Binder | pKd
85 | B1 | 3.71
86 | B2 | below the threshold
87 | B3 | below the threshold
88 | B4 | 3.82

These binders were tested against Inadl_3, Q8NI35 (assay: holdup assay). Conditions: plain residues with an end cap or a label only (N-terminal biotin on a linker: ado-ado).
Set-up: key: below the threshold = too weak to quantify, mostly under pKd 3.1 to 4

Sequence of Inadl_3, Q8NI35 (Q8NI35 359-469): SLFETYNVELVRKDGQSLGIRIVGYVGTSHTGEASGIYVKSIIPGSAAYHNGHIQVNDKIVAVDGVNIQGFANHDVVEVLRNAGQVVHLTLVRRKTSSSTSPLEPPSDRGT

Row | Binder | pKd
89 | B1 | below the threshold
90 | B2 | below the threshold
91 | B3 | below the threshold
92 | B4 | 3.6

What follows are binders tested against DLG1_2, Q12959 (assay: holdup assay). Conditions: plain residues with an end cap or a label only (N-terminal biotin on a linker: ado-ado).
Set-up: key: below the threshold = too weak to quantify, mostly under pKd 3.1 to 4

Row | Binder | pKd
93 | B1 | 4.71
94 | B2 | 5.33
95 | B3 | 5.64
96 | B4 | below the threshold

These binders were tested against MAST1, Q9Y2H9 (assay: holdup assay). Conditions: plain residues with an end cap or a label only (N-terminal biotin on a linker: ado-ado).
Set-up: key: below the threshold = too weak to quantify, mostly under pKd 3.1 to 4

Sequence of MAST1, Q9Y2H9 (Q9Y2H9 962-1065): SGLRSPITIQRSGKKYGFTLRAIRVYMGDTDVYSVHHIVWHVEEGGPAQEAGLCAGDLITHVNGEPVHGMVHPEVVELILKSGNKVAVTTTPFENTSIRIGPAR

Row | Binder | pKd
97 | B1 | 4.35
98 | B2 | 4.71
99 | B3 | 4.19
100 | B4 | 3.8
